Ten molecules from patent US20120121591A1 (priority 2009, published 2012) can be followed below.

Series [1] concerns the target T1, human Kv1.3 (Homo sapiens, UniProt P22001). Briefly: cell-based or functional assay.
For series [2], the target named is T2, human Kv1.1 (Homo sapiens, UniProt Q09470). The experiment in a line: cell-based or functional assay.
Series [3] concerns the target T1, human Kv1.3. The experiment in a line: cell-based or functional assay. The source holds these as a separate data set.
The target of series [4] is T2, human Kv1.1. The experiment in a line: cell-based or functional assay. This is another data set of the same source.
Series [5] addresses Glycine (Strychnine insensitive) (Cerep target) (human). The experiment in a line: Cerep safety pharmacology binding assay.
For series [6], the target named is NMDA (Cerep target) (human). Briefly: Cerep safety pharmacology binding assay.
Series [7] deals with Glycine (Strychnine insensitive) (Cerep target) (human).
The target in series [8] is NMDA (Cerep target) (human).
The target of a further series is hKv1.5 (Homo sapiens, UniProt P22460). Briefly: cell-based or functional assay.
Chain of hKv1.5 (P22460 whole entry): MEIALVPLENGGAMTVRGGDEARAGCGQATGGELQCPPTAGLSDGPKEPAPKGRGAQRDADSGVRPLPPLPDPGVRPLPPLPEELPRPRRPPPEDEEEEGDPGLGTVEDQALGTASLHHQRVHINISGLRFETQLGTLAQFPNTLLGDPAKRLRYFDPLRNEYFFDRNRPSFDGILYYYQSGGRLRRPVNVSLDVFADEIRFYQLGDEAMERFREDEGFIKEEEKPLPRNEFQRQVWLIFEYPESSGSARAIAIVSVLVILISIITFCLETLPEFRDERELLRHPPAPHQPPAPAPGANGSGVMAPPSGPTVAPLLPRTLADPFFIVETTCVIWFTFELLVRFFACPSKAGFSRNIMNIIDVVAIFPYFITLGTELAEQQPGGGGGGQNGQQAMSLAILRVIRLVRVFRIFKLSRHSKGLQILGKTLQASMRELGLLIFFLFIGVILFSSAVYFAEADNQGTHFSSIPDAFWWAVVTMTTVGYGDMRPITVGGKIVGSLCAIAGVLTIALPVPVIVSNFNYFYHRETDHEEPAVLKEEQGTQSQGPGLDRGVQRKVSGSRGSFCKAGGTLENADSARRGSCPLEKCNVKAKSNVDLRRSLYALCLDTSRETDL
A further series deals with hKv1.6 (Homo sapiens, UniProt P17658). Briefly: cell-based or functional assay.
For the next series, the target named is BKCa (human) (UniProt Q12791). The experiment in a line: cell-based or functional assay.
Chain of BKCa (human) (Q12791 whole entry): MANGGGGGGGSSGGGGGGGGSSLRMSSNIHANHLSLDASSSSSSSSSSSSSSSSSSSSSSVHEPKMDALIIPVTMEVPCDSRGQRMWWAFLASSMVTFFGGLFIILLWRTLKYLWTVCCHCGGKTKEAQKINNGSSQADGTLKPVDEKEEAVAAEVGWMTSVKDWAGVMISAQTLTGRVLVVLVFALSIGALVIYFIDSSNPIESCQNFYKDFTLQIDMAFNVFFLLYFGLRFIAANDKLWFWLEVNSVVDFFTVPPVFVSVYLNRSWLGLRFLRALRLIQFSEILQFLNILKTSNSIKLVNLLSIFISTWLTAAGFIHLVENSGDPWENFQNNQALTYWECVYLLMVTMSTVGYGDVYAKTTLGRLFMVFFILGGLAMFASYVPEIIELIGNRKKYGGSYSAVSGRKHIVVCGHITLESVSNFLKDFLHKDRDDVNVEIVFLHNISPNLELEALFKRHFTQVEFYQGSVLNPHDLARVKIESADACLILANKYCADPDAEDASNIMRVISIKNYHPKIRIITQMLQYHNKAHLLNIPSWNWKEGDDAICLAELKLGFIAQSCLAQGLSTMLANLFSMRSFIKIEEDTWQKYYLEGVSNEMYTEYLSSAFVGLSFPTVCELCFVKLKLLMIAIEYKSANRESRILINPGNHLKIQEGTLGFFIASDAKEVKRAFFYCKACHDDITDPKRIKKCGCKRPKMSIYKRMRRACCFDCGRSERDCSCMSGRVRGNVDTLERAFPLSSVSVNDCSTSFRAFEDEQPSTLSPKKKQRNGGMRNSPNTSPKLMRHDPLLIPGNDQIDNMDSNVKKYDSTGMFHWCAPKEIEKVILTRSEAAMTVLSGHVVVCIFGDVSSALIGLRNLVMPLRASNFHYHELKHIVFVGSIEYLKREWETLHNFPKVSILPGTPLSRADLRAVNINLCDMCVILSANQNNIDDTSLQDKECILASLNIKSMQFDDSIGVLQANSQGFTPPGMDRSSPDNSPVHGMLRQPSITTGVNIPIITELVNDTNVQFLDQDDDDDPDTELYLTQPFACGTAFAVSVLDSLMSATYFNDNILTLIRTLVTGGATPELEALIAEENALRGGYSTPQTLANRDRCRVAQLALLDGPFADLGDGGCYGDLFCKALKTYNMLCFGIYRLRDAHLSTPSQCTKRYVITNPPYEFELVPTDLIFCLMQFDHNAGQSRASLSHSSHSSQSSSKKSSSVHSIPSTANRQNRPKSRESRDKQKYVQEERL
For the next series, the target named is hNav1.5 (INa) (human) (UniProt Q14524). Briefly: cell-based or functional assay.
A further series has as its target hKv1.7 (Homo sapiens, UniProt Q96RP8). Briefly: cell-based or functional assay.
The target of series [9] is cynomolgus monkey T cell Kv1.3 (cynomolgus monkey). Briefly: cell-based or functional assay.
For the next series, the target named is hCav1.2 (ICa) (human) (UniProt Q13936). Briefly: cell-based or functional assay.
The next series addresses hKv1.4 (Homo sapiens, UniProt P22459). Briefly: cell-based or functional assay.
The target in another series is hKv4.3 (Ito) (human) (UniProt Q9UK17). Briefly: cell-based or functional assay.
A further series concerns the target hKv1.2 (Homo sapiens, UniProt P16389). Briefly: cell-based or functional assay.
For another series, the target named is hERG (IKr) (human) (UniProt Q12809). The experiment in a line: cell-based or functional assay.
Series [10] concerns the target T1, human Kv1.3. The class given is cell-based. Conditions: for IC50: read-out: Kv1.3 IC50, whole cell patch clamp.
Series [11] concerns IFN-g secretion from T cells in human whole blood. Format: cell-based.
Series [12] is classed as in vivo, rat. Conditions: Sprague-Dawley rats. An excerpt: Single subcutaneous doses were delivered to animals and serum was collected at various time points after injection. Studies in rats, dogs (beagles), and cynomolgus monkeys involved two to three animals per dose group, with blood and serum collection occurring at various time points over the course of the study. Male Sprague-Dawley (SD) rats (about 0.3 kg), male beagles (about 10 kg) and male cynomolgus monkeys (about 4 kg) were used in the studies described herein (n=3 animals per dose group). Approximately 5 male CD-1 mice were used per dose and time point in our mouse pharmacokinetic studies. Serum samples were stored frozen at −80° C., until analysis in an enzyme-linked immunosorbent assay (ELISA).
Single subcutaneous doses were delivered to animals and serum was collected at various time points after injection. Three animals were used per dose group, with blood and serum collection occurring at various time points over the course of the study. Serum samples were stored frozen at −80° C., until analysis in an enzyme-linked immunosorbent assay (ELISA). […] A brief description of these ELISA protocols is provided: […]

Another series addresses hKv1.3 (Homo sapiens, UniProt P22001). Briefly: cell-based. Format: cell-based. Conditions: read-out: Kv1.3 (IWQ) IC50 (nM, Avg).
Series [13] relates to IL-2 secretion from T cells in human whole blood. Format: cell-based.
For series [14], the target named is T2, human Kv1.1. The class given is cell-based. Conditions: read-out: Kv1.1 IC50, whole cell patch clamp.
For series [15], the system named is human CD34-derived mast cells.

Like-named read-outs stand apart in the source and are kept apart here. No end group written: not given here. A value given as a limit tells only on which side of the number the result lay.

T1 sequence (P22001 whole entry): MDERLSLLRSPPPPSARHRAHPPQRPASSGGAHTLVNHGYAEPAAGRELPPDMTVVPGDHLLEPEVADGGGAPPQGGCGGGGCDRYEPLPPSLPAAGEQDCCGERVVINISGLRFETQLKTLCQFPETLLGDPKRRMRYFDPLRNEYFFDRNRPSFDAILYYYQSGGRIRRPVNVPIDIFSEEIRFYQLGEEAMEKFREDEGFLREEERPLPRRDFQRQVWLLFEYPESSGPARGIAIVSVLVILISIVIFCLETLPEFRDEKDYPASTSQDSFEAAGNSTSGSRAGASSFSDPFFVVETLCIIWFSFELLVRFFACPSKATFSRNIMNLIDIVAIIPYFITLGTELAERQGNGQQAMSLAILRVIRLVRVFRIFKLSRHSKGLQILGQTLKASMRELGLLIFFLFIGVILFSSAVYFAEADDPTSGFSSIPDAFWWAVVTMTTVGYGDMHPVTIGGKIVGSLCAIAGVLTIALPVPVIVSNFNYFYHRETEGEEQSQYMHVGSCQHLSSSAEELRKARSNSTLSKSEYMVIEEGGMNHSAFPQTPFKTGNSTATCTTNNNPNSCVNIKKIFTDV
T2 sequence (Q09470 whole entry): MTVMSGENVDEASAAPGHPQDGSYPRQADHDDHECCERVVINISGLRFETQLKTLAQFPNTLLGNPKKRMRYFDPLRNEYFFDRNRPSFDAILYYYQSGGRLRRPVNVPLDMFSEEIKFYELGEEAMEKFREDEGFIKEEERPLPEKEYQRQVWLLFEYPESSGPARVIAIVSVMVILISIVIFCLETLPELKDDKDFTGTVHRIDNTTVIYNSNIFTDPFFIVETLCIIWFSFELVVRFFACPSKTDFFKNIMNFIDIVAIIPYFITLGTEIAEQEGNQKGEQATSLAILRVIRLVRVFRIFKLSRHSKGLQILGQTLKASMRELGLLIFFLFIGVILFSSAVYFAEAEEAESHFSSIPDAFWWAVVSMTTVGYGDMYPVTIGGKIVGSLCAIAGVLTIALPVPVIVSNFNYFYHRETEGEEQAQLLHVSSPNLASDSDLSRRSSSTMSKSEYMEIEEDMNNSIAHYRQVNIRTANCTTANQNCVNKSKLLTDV
Chain of hKv1.7 (Q96RP8 whole entry): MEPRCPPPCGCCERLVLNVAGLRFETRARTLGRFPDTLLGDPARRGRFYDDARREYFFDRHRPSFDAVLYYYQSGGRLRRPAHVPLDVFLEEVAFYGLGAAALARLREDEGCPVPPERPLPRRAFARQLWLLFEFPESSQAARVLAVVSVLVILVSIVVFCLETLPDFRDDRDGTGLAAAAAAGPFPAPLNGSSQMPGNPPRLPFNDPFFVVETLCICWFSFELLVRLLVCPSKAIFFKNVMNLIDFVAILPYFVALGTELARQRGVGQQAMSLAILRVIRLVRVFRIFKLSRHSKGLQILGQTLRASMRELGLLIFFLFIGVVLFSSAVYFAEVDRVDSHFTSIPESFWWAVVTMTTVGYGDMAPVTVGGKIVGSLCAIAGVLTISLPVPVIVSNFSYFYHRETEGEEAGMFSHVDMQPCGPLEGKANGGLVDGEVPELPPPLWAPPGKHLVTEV
Chain of hKv1.4 (P22459 whole entry): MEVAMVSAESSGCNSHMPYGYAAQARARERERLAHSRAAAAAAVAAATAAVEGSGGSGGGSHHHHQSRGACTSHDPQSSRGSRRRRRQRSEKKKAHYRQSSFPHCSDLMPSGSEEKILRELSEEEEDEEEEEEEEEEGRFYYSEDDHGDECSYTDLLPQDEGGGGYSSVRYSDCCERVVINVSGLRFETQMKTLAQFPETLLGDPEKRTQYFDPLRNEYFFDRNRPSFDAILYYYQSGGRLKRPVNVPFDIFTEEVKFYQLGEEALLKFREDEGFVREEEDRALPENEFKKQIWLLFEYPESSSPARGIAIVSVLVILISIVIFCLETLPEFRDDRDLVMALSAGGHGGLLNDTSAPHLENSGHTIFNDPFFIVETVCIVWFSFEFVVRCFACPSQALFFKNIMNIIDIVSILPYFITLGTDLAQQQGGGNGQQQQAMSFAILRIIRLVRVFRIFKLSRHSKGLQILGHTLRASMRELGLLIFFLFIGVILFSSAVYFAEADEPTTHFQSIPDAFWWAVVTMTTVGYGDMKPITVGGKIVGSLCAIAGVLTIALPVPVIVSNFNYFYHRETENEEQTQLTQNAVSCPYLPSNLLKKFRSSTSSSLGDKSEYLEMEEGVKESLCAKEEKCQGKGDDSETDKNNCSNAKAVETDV
Chain of hKv1.3 (P22001 whole entry): as the sequence (P22001 whole entry) above
Chain of hKv1.2 (P16389 whole entry): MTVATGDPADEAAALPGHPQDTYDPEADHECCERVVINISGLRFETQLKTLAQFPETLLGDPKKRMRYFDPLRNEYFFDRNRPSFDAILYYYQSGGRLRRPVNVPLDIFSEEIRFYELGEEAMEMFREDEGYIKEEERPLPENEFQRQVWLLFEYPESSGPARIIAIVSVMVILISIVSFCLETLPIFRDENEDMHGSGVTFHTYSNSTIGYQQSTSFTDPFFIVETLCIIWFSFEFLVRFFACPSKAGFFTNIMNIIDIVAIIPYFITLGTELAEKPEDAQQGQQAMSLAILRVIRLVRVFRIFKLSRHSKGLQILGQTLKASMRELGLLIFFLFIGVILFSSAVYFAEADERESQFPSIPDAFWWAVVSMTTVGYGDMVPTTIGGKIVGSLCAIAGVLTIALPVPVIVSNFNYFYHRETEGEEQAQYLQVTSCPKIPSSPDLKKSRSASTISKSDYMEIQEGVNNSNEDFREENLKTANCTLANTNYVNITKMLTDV

In the series with human Kv1.3 [1], 20 kDa PEG-ShK (peptide) displayed a Kv1.3 IC50 (whole cell patch clamp) of 0.299 nM, a WB (IFNg) IC50 of 0.84 nM and a WB (IL-2) IC50 of 0.38 nM. Moreover, the Kv1.1 IC50 (whole cell patch clamp) with human Kv1.1 [2] came to 1.63 nM. For the same molecule, in the series with human Kv1.3 [3], the Kv1.3 (IWQ) IC50 worked out at 1.21 nM, the WB (IFNg) IC50 was 0.855 nM and the WB (IL-2) IC50 was found to be 0.387 nM. Further, the Kv1.1 (IWQ) IC50 with human Kv1.1 [4] was 0.11 nM.

In [5], 20 kDa PEG-[Lys16]ShK (peptide) returned an IC50 of 1700 nM. The molecule also returned an IC50 in series [6] of 10000 nM. Also, the % Inhibition in series [7] came to 101%. Also, the % Inhibition in [8] amounted to 71%. In the series with human Kv1.3 [3], this molecule came in with an IFNγ production in human whole blood IC50 of 0.24 nM, an IL-2 production in human whole blood IC50 of 0.109 nM, a Kv1.3 (IWQ) IC50 of 0.665 nM and a WB (IFNg) IC50 of 0.215 nM. In the series with human Kv1.3 [3], this molecule displayed a WB (IL-2) IC50 of 0.104 nM and a whole blood IL-2 secretion IC95 of 1.01 nM. In addition, the Kv1.5 IC50 with hKv1.5 was greater than 30000 nM. Moreover, the Kv1.6 IC50 in the series with hKv1.6 is 466 nM. The same molecule showed a BKCa IC50 in the series with BKCa (human) greater than 10000 nM. Further, in the series with hNav1.5 (INa) (human), the Nav1.5 (INa) IC50 is greater than 30000 nM. In the series with hKv1.7, this molecule yielded a Kv1.7 IC50 greater than 10000 nM. This molecule also returned a Kv1.1 (IWQ) IC50 with human Kv1.1 [4] of 1080 nM. Besides, in [9], the cyno whole blood PD assay, IL-4 response IC50 was found to be 0.17 nM and the cyno whole blood PD assay, IL-17 response IC50 amounted to 0.09 nM. Moreover, in the series with hCav1.2 (ICa) (human), the Cav1.2 (ICa) IC50 is greater than 30000 nM. In the series with hKv1.4, this molecule displayed a Kv1.4 IC50 greater than 10000 nM. In the series with hKv4.3 (Ito) (human), this molecule gave a Kv4.3 (Ito) IC50 greater than 30000 nM. Besides, in the series with hKv1.2, the Kv1.2 IC50 came to 639 nM. In the series with hERG (IKr) (human), the hERG (IKr) IC50 was greater than 10000 nM.

“20 kDa-PEG-ShK: ShK conjugated with an N-terminal 20 kDa PEG moiety”: the 50% inhibitory concentration (IC50) in the series with human Kv1.3 [10] stood at 0.299 nM; in series [11] (read-out: WB (IFNg) IC50), 0.84 nM; in series [11] (read-out: WB (IFNg) IC50 (nM, Avg)), 0.855 nM; with hKv1.3, 1.21 nM; in [13] (read-out: WB (IL-2) IC50), 0.38 nM; in [13] (read-out: WB (IL-2) IC50 (nM, Avg)) it was 0.387 nM. For the same molecule, the AUC0-inf in series [12] (SC 0.3 mg/kg) is 6,020 ng · hr · mL^−1; in series [12] (SC 2 mg/kg) it was 42374 ± 10,237 ng · hr · mL^−1. Besides, the results for the AUC0-t in [12] (SC 0.3 mg/kg) and in series [12] (SC 2 mg/kg) were 6011 ng·h/mL and 42347 ± 10,228 ng · hr · mL^−1, respectively. For the same molecule, the Cmax was 0.165 µg/mL in [12] (SC 0.3 mg/kg) and 1.138 ± 0.404 µg/mL in [12] (SC 2 mg/kg). Moreover, the “DNAUC (0-inf)” value is reported as 20065 in series [12] (SC 0.3 mg/kg) and 21187 in series [12] (SC 2 mg/kg). Moreover, the MRT in series [12] (SC 0.3 mg/kg) was 27 h; in [12] (SC 2 mg/kg), 37 ± 3 h. Besides, the values for the Tmax in series [12] (SC 0.3 mg/kg) and in series [12] (SC 2 mg/kg) were 24 h and 24 ± 0 h, respectively.

For the molecule 30kPEG-[Lys16]ShK (peptide), in the series with human Kv1.3 [1], the Kv1.3 (PX) IC50 was found to be 1.2 nM, the WB (IFNg) IC50 turned out to be 0.491 nM and the WB (IL-2) IC50 was determined as 0.282 nM. In the series with human Kv1.1 [2], this molecule had a Kv1.1 (PX) IC50 of 1070 nM. In addition, in the series with human Kv1.3 [3], the Kv1.3 (IWQ) IC50 stood at 0.454 nM. The molecule further had a Kv1.1 (IWQ) IC50 with human Kv1.1 [4] of 33.3 nM.

On to “Bivalent Fc-L10-ShK[1-35] homodimer: bivalent IgG1 Fc-L10-ShK[1-35] peptibody, Example 1 of WO2008/088422A2 (GGGGSGGGGSRSCIDTIPKSRCTAFQCKHSMKYRLSFCRKTCGTC; not fully specified (N-terminus); ends and bridges not checked; also: homodimer (bivalent Fc peptibody))”, for which the IC50 was determined as 0.32 nM in series [11] (read-out: WB (IFNg) IC50), 0.386 nM in series [13] (read-out: WB (IL-2) IC50) and 0.067 nM in the series with human Kv1.1 [14].

As for “Bivalent Fc-L10-ShK[2-35] homodimer: bivalent IgG1 Fc-L10-ShK[2-35] peptibody, Example 2 of WO2008/088422A2 (Fc-GGGGSGGGGSSCIDTIPKSRCTAFQCKHSMKYRLSFCRKTCGTC; ends and bridges not checked; also: homodimer via IgG1 Fc)”, the “Kv1.1/Kv1.3 Selectivity Ratio” value with human Kv1.3 [10] was 3.54. Moreover, the IC50 with human Kv1.3 [10] is 0.116 nM; in [11] (read-out: WB (IFNg) IC50), 2.29 nM; in series [13] (read-out: WB (IL-2) IC50), 0.585 nM; with human Kv1.1 [14], 0.411 nM. The “Potency Relative to ShK (WB, IL2)” value in [13] is 8.73.

“MCDP: basic secretagogue, positive control (IKCNCKRHVIKPHICRKICGKN; ends and bridges not checked; cysteine pairing not given here; UniProt P01499 28-49, looked up)”: in [15], the “Degranulation / histamine release of human CD34-derived mast cells” value is listed as “highly active”.

“substance P: basic secretagogue, positive control”: the “Degranulation / histamine release of human CD34-derived mast cells” value in series [15] is on record as “highly active”.

B1: Bivalent Fc-L10-ShK[1-35] homodimer (Fc fusion)
chain: GGGGSGGGGSRSCIDTIPKSRCTAFQCKHSMKYRLSFCRKTCGTC
modifications: not fully specified (N-terminus); ends and bridges not checked; also: homodimer via Fc
In the series with human Kv1.3 [1], B1 had a Kv1.3 IC50 (whole cell patch clamp) of 0.015 nM, a WB (IFNg) IC50 of 0.32 nM and a WB (IL-2) IC50 of 0.386 nM. The same molecule registered a Kv1.1 IC50 (whole cell patch clamp) with human Kv1.1 [2] of 0.067 nM.

B2: Bivalent Fc-L10-ShK[2-35] homodimer (Fc fusion)
chain: GGGGSGGGGSSCIDTIPKSRCTAFQCKHSMKYRLSFCRKTCGTC
modifications: not fully specified (N-terminus); ends and bridges not checked; also: homodimer via Fc
B2: in the series with human Kv1.3 [1], the Kv1.3 IC50 (whole cell patch clamp) was 0.116 nM, the WB (IFNg) IC50 worked out at 2.29 nM and the WB (IL-2) IC50 stood at 0.585 nM. The same molecule came in with a Kv1.1 IC50 (whole cell patch clamp) with human Kv1.1 [2] of 0.411 nM.
